The target in series [1] is T1, MTERF1 58-399::FoxoTAD-LMSTEN-TA1 (Homo sapiens, UniProt Q99551 SEQ:1-342).
T1 chain: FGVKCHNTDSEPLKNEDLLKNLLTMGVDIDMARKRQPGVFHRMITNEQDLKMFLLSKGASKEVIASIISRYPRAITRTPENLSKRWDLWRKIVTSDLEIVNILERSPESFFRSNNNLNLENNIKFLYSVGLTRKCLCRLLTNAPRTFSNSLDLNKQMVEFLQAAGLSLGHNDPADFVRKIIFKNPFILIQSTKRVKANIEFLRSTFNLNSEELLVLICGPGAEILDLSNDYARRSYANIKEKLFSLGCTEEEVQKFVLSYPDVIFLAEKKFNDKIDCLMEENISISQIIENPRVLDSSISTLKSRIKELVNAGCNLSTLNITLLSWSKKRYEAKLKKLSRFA
Kind of series: cell_activity; HEK293 reporter. Particulars: tags: TAD fusion. From the text: (§1) Upon co-transfection of HEK293 cells with plasmids encoding pEF1a-driven expression of the fusion HumTAPs, a Response Element-driven mCerulean reporter protein, and a mCherry transfection control, all peptides derived from RelA except TA1 mediated high levels of reporter gene expression. Including a larger fraction of the RelA protein led to higher reporter expression. Conversely, the core transactivation domains TA1, WW, ZNF473 KRAB, and NucRecCoAct mediated little to no reporter expression.
(§2) Similarly, two copies of FoxoTAD (SEQ ID NO: 33) mediated 20-fold more mCerulean expression than just one FoxoTAD copy and ~2-fold more than the benchmark RelA₄₃₀₋₅₅₁ TAD. This effect was not as pronounced for the LMSTEN domain for which two copies (SEQ ID NO: 196) mediated ~2.7-fold more reporter expression than one copy. Fusing FoxoTAD with LMSTEN (SEQ ID NO: 54), LMSTEN with TA1 (SEQ ID NO: 56), or FoxoTAD with TA1 (SEQ ID NO: 58) yields TADs that are at the same time smaller and stronger than the benchmark RelA₄₃₀₋₅₅₁ TAD. A chimeric TAD consisting of FoxoTAD, LMSTEN, and TA1 (SEQ ID NO: 52) yields 3.7 times the amount of reporter gene expression than RelA₄₃₀₋₅₅₁ (FIG. 9 C). It is therefore possible to engineer both stronger and smaller transactivation domains than the commonly used RelA₄₃₀₋₅₅₁ without incorporating protein domains of non-human origin. […]

In another series the target is T2, MTERF1 58-399::2xFoxoTAD (Homo sapiens, UniProt Q99551 SEQ:1-342).
T2 chain: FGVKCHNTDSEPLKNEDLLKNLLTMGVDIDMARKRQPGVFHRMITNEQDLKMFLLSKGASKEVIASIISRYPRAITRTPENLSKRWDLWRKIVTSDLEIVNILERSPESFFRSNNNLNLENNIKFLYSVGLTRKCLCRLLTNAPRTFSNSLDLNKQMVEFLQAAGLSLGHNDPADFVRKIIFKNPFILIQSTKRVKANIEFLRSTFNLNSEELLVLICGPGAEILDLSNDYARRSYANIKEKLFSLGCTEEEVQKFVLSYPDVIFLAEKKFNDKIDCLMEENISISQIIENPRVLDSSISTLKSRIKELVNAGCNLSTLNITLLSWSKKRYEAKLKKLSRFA
Description: cell_activity; HEK293 reporter. Conditions: tags: TAD fusion.
Text: as §1, §2

In a further series the target is T3, MTERF1 58-399::FoxoTAD (Homo sapiens, UniProt Q99551 SEQ:1-342).
T3 chain: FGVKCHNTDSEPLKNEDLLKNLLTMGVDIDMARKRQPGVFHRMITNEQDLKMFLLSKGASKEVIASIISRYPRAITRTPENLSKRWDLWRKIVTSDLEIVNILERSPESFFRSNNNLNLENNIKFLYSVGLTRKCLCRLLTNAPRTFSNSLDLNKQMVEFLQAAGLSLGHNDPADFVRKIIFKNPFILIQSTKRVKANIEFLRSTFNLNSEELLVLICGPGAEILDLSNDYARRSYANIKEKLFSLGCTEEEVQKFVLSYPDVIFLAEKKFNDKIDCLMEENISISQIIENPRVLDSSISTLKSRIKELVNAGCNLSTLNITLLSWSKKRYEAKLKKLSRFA
Kind of series: cell_activity; HEK293 reporter; TAD effect. Conditions: tags: TAD fusion.

A further series concerns the target T4, MTERF1 58-399::LMSTEN (Homo sapiens, UniProt Q99551 SEQ:1-342).
T4 chain: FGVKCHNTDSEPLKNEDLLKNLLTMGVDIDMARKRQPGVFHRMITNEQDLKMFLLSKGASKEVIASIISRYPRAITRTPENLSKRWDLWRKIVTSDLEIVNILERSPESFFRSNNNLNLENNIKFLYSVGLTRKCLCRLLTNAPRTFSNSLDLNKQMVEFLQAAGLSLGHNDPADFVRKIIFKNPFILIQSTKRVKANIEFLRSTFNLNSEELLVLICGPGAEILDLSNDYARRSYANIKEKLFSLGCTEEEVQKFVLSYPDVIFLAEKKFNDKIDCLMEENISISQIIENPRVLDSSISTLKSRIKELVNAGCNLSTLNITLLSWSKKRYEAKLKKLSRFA
Kind of series: cell_activity; HEK293 reporter; TAD effect. Conditions: tags: TAD fusion.

For another series, the target named is T5, MTERF1 58-399::2xTA1 (Homo sapiens, UniProt Q99551 SEQ:1-342).
T5 chain: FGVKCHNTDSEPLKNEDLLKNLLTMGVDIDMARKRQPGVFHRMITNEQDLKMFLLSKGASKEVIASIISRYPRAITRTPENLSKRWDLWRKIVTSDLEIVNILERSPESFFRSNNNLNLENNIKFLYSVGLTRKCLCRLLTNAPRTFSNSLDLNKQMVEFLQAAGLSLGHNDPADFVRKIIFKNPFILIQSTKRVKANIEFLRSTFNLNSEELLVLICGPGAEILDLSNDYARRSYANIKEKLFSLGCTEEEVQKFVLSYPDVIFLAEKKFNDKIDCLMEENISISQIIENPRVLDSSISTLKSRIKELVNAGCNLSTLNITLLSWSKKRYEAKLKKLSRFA
Kind of series: cell_activity; HEK293 reporter. Particulars: tags: TAD fusion.

The test system of series [2] is endogenous human genes in HEK293 cells. Description: RNA-Seq differential gene expression analysis of transfected HEK293 cells versus junk plasmid (edgeR). It is filed as cell-based. Conditions: transfected HEK293 cells vs "junk" plasmid, FDR<0.5, fold-change of at least 2. The protocol: The inventors therefore used RNA-Seq to investigate whether MTF (SEQ ID NO: 100) activates the expression of endogenous human genes. The inventors also transfected WT MTERF1 (SEQ ID NO: 108) to compare the gene-regulatory effects of MTERF1 to those of MTF. Differential gene expression analysis was performed against cells that were transfected with a “junk” plasmid using the edgeR software package for R [24]. […] Future investigations will assess the dose-dependency of differentially expressed (DE) genes on MTF amount and may help clarify the origin of DE genes.

Series [3] deals with Response Element-driven (SEQ ID NO: 48) mCerulean fluorescent reporter. Description: Orthogonality: MTF-driven reporter with or without WT MTERF1 co-expression. It is filed as cell-based, human. Conditions: HEK293; MTF construct plus reporter SEQ ID NO: 48, with or without EF1a-driven WT MTERF1. The text has this: To assess the orthogonality of the host towards the Response Element-driven Gene of Interest (Gol), the inventors transfected a HumTAP representative MTF (SEQ ID NO: 100) with a Response Element-driven (SEQ ID NO: 48) mCerulean fluorescent reporter, with and without the construct encoding a wild-type MTERF1 to assess whether it might interfere with the induction of the Gol by MTF (FIG. 7B).

Entries after “also recorded” stand apart in the source; their conditions may differ.

B1: 5xRE, 0 bp spacing (dsDNA)
DNA 1: TAAGATGGCAGAGCCCGGTAATTAAGATGGCAGAGCCCGGTAATTAAGATGGCAGAGCCCGGTAATTAAGATGGCAGAGCCCGGTAATTAAGATGGCAGAGCCCGGTAAT
DNA 2: ATTACCGGGCTCTGCCATCTTAATTACCGGGCTCTGCCATCTTAATTACCGGGCTCTGCCATCTTAATTACCGGGCTCTGCCATCTTAATTACCGGGCTCTGCCATCTTA
Regarding B1, the binding signal in series [1] was 3.7 fold vs MTF; with MTERF1 58-399::2xFoxoTAD, roughly 2 fold vs MTF; with MTERF1 58-399::FoxoTAD, 8.4 fold lower than MTF; with MTERF1 58-399::LMSTEN, 11.3 fold lower than MTF; in the series with MTERF1 58-399::2xTA1, 201 fold vs one TA1 copy.

B2: WT MTERF1: human MTERF1, Uniprot Q99551, including the mitochondrial transfer peptide (protein, listed as Homo sapiens)
chain: MQSLSLGQTSISKGLNYLTIMAPGNLWHMRNNFLFGSRCWMTRFSAENIFKSVSFRLFGVKCHNTDSEPLKNEDLLKNLLTMGVDIDMARKRQPGVFHRMITNEQDLKMFLLSKGASKEVIASIISRYPRAITRTPENLSKRWDLWRKIVTSDLEIVNILERSPESFFRSNNNLNLENNIKFLYSVGLTRKCLCRLLTNAPRTFSNSLDLNKQMVEFLQAAGLSLGHNDPADFVRKIIFKNPFILIQSTKRVKANIEFLRSTFNLNSEELLVLICGPGAEILDLSNDYARRSYANIKEKLFSLGCTEEEVQKFVLSYPDVIFLAEKKFNDKIDCLMEENISISQIIENPRVLDSSISTLKSRIKELVNAGCNLSTLNITLLSWSKKRYEAKLKKLSRFA
Regarding B2, the “DE genes, Regulation Up (up-regulated gene, Symbol)” value in series [2] was “GDF15; also recorded: TRPV6; also recorded: HSPA7”.

B3: MTF: fusion of human MTERF1 amino acids 58-399 to RELA amino acids 430-551; prototype HumTAP synthetic transcription factor (protein)
chain: MFGVKCHNTDSEPLKNEDLLKNLLTMGVDIDMARKRQPGVFHRMITNEQDLKMFLLSKGASKEVIASIISRYPRAITRTPENLSKRWDLWRKIVTSDLEIVNILERSPESFFRSNNNLNLENNIKFLYSVGLTRKCLCRLLTNAPRTFSNSLDLNKQMVEFLQAAGLSLGHNDPADFVRKIIFKNPFILIQSTKRVKANIEFLRSTFNLNSEELLVLICGPGAEILDLSNDYARRSYANIKEKLFSLGCTEEEVQKFVLSYPDVIFLAEKKFNDKIDCLMEENISISQIIENPRVLDSSISTLKSRIKELVNAGCNLSTLNITLLSWSKKRYEAKLKKLSRFAQAGEGTLSEALLQLQFDDEDLGALLGNSTDPAVFTDLASVDNSEFQQLLNQGIPVAPHTTEPMLMEYPEAITRLVTGAQRPPDPAPAPLGAPGLPNGLLSGDEDFSSIADMDFSALLSQISS
Regarding B3, in series [3], the “Gol fluorescence levels with or without concomitant WT MTERF1 expression” value was “no difference in Gol fluorescence levels”. Also, the “DE genes, Regulation Up (up-regulated gene, Symbol)” value in series [2] is recorded as “Novel Transcript; also recorded: USP17L2; also recorded: HSPA7; also recorded: ADGRA1”.
